What was measured:
[1] = biological target: T1, human cMET (recombinant, soluble monomeric) (human, UniProt P08581 25-932); test: SPR (BIAcore T200), antibody captured on anti-human IgG, soluble monomeric antigen as analyte, 25 C, 1:1 fit
T1 construct: also called cMET antigen; His-tagged cMET antigen
Protocol: (§1) Mouse anti-human IgG was immobilized on a CM4 sensor chip with a final surface density of ˜2000 resonance units (RUs). A reference flow cell surface was also prepared on this sensor chip using identical immobilization protocol. Test and control article antibodies were prepared at 5-20 nM in instrument buffer (HBS-EP buffer; 0.01M HEPES, pH 7.4, 0.15M NaCl, 3 mM EDTA, and 0.005% P-20), along with 3-fold serial dilutions of purified EGFR (0.27-200 nM human, 0.4-900 nM cyno, and 4-1000 nM murine) or cMET proteins (0.27-66 nM human and 0.27-22 nM cyno) in instrument buffer. A sequential approach was utilized for kinetic measurements. Antibodies were first injected over the capture surface, at a flow rate of 10 μL/minute. Once the binding of the captured antibody stabilized, a single concentration of the analyte was injected over both capture and reference surfaces, at a flow rate of 75 μL/minute. The resulting binding response curves yielded the association phase data. Following the injection of analyte, the flow was then switched back to instrument buffer for 15 minutes to permit the collection of dissociation phase data, followed by a 1-minute pulse of 10 mM glycine, pH 1.5, to regenerate the antibody-captured surface on the chip. Binding responses against test and control article antibodies were recorded from duplicate injections of each concentration of analyte. In addition, several buffer injections were interspersed throughout the injection series. Select buffer injections were used along with the reference cell responses to correct the raw data sets for injection artifacts and/or nonspecific binding interactions, commonly referred to as “double referencing”. Corrected binding data were globally fit to a 1:1 binding model (Biacore T200 Evaluation software 2.0, GE Healthcare, Pittsburgh, PA).
(§2) Kinetic measurements to soluble monomeric forms of EGFR and cMET were performed using a BIACore instrument.

[2] = biological target: T2, cynomolgus monkey EGFR (recombinant, soluble monomeric) (cynomolgus monkey, UniProt P55245 25-645 (rhesus entry)); test: as above
T2 construct: also called cyno EGFR
Protocol: as §1, §2

mouse EGFR (recombinant) = biological target: T3, mouse EGFR (recombinant) (mouse, UniProt Q01279 25-647); test: as above
T3 construct: also called murine EGFR
Protocol: as §1, §2

[3] = biological target: T4, human EGFR (recombinant, soluble monomeric) (human, UniProt P00533 25-645); test: as above
T4 construct: also called EGFR antigen
Protocol: as §1, §2

[4] = biological target: T5, cynomolgus monkey cMET (recombinant, soluble monomeric) (cynomolgus monkey, UniProt A0M8R7 25-932 (Papio anubis entry)); test: as above
T5 construct: also called cyno cMET
T5 sequence (A0M8R7 25-932 S170N/I621T): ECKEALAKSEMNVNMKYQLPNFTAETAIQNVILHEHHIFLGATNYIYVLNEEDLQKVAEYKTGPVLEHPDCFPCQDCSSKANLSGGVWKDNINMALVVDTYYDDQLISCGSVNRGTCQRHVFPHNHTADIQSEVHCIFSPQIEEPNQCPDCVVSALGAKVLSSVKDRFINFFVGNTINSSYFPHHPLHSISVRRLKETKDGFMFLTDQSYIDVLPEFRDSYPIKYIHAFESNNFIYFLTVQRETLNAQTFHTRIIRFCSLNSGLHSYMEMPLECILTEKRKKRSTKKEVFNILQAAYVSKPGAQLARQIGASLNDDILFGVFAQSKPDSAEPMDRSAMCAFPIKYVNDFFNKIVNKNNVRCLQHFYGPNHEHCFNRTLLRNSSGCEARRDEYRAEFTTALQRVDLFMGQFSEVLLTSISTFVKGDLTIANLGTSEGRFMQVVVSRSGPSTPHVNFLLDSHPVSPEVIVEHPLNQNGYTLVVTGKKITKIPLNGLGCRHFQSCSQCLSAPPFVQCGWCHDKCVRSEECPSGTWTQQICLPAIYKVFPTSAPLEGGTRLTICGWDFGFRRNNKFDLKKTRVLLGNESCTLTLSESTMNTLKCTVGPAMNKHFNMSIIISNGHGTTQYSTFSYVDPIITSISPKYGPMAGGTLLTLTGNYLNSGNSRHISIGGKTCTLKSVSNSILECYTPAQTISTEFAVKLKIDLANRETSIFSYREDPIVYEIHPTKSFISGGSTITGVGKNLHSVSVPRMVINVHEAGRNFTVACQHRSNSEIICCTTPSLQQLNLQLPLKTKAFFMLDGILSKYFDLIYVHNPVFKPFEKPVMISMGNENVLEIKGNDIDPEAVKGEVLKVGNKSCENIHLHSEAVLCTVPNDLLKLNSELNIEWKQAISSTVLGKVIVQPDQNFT
Protocol: as §1, §2

mouse cMET (recombinant) = mouse cMET (recombinant) (mouse, UniProt P16056 25-929, limits assumed); test: ELISA, antigen coated at 1 µg/mL, antibody titrated from 10 µg/mL
Sequence of mouse cMET (recombinant) (P16056 25-929 limits assumed): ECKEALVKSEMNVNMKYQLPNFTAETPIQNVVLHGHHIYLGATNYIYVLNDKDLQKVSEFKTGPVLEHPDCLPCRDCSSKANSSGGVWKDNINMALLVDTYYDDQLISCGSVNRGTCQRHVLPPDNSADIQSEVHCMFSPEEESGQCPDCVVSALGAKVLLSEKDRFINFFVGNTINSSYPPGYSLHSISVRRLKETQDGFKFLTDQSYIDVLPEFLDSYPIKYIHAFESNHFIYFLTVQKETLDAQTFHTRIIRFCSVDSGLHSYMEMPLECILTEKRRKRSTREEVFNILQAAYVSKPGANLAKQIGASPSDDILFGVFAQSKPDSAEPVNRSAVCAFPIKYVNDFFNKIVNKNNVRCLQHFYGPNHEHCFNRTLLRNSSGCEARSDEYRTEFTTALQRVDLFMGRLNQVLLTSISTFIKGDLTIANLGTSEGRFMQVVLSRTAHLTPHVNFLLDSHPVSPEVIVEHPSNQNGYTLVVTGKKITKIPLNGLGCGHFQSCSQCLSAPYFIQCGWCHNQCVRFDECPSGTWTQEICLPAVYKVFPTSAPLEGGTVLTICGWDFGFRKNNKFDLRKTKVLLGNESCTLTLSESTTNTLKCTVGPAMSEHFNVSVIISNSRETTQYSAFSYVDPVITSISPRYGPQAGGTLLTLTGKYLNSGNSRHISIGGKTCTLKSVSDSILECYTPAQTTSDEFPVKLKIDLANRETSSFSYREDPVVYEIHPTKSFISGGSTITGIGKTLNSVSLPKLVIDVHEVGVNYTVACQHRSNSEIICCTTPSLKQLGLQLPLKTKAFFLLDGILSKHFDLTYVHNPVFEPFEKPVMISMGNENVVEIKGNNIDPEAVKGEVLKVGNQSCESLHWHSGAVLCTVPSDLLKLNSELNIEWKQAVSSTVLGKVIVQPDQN
Protocol: (§3) Specificity for EGFR and cMET species paralogs and closely related family members was determined by ELISA. Briefly, antigen solutions were prepared in PBS at 1 μg/mL and 50 microliters was coated onto half area ELISA assay plates. Plates were washed and blocked with 1% BSA in PBS containing 0.005% Tween-20 (PBS-T) for one hour at room temperature. […] Wells were incubated with 50 microliters of the indicated primary antibodies diluted in PBS-T in a 1:3 dilution series, starting at 10 μg/mL and ending at 0.002 μg/mL, except for the HER4 binding mAb control, MAB1131, for which the series started at 1 μg/mL. The wells were washed 4 times in PBS-T, then 50 μl of goat anti-human Fab HRP-labeled secondary antibody, diluted 1:5000 in PBS-T, was added to each well and incubated for one hour at room temperature. […] 50 microliters of TMB stop solution was added to all wells and the absorbance was read at 450 nm on a SpectraMax M5 microplate reader. Data were analyzed in the SoftMax Pro 5 software and plotted using GraphPad Prism 7 graphing software.
(§4) To determine the species cross reactivity, ELISA assays were carried out as described above.

Ron (CD136) = biological target: T6, Ron (CD136) (UniProt Q04912 25-957, limits assumed); test: as above
T6 sequence (looked up): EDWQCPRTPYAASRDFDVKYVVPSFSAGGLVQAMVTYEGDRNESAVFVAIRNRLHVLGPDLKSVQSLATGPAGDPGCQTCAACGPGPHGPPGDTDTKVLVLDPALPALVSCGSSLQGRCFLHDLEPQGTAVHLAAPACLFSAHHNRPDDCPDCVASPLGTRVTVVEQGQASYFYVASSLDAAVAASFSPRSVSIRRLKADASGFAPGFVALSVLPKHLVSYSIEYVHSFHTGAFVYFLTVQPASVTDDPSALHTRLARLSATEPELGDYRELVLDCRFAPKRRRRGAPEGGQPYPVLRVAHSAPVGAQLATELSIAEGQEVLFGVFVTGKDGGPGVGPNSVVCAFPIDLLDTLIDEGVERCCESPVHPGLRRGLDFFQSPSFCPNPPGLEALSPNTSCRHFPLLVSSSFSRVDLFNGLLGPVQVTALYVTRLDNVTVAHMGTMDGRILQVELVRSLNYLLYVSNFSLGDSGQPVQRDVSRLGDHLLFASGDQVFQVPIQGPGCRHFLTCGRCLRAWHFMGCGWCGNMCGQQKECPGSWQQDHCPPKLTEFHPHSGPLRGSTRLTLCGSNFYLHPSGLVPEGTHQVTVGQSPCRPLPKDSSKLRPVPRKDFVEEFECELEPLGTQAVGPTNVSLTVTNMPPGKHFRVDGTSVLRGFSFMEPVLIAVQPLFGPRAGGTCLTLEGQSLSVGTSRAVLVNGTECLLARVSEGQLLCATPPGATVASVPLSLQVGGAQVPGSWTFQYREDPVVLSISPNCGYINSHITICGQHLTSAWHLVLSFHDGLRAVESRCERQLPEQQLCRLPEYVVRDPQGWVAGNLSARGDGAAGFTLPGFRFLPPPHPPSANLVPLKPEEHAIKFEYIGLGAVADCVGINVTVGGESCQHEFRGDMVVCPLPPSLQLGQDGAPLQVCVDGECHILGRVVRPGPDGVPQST
Protocol: as §3, §4

T1 sequence (P08581 25-932): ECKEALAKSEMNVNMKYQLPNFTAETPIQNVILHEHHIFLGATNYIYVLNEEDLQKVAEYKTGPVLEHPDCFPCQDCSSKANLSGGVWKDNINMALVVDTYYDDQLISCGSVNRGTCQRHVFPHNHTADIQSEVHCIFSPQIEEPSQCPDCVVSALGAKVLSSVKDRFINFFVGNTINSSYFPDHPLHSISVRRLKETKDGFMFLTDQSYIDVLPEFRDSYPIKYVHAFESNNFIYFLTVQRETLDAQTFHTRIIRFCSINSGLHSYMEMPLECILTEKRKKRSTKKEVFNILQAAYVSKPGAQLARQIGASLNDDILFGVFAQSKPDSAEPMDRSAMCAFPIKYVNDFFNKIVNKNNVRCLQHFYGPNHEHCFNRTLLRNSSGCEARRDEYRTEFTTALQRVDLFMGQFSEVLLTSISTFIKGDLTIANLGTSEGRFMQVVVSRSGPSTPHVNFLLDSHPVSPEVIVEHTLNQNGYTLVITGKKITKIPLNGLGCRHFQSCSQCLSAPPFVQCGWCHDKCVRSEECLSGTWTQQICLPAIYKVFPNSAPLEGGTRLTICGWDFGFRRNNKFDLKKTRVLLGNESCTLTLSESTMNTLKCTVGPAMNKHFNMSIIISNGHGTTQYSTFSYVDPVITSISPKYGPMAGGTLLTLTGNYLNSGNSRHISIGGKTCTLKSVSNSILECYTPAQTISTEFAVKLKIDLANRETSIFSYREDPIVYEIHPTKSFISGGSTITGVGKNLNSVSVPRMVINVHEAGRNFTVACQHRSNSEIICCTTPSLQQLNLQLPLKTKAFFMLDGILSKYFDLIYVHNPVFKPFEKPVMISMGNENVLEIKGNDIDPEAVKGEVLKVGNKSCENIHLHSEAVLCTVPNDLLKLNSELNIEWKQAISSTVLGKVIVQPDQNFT

B1: RAA22/B09-57 DuetMab (bispecific antibody, V domains shown)
VH 1: QVQLVQSGAEVKKPGSSVKVSCKASGGTFSDNDFSWVRQAPGQGLEWMGAIVAVFRTETYAQKFQDRVKITADISTRTTYMELSSLRSEDTAVYYCARRLMSAISGPGAPLLMWGQGTLVTVSS
VL 1: QSALTQPRSVSGSPGQSVTISCTGTSSDVGGYNYVSWYQQHPGKAPKLMIYDVSKRPSGVPDRFSGSKSGNTASLTISGLQAEDEADYYCSSYTSSDTLEIFGGGTKLTVL
VH 2: QVQLVQSGAEVKKPGASVKVSCKASGYTFTDYYIHWVRQATGQGLEWMGWMNPNSGNTGYAQKFQGRVTMTRDTSISTAYMELSSLRSEDTAVYYCARGQGYTHSWGQGTMVTVSS
VL 2: DIQMTQSPSTLSASVGDRVTITCRASEGIYHWLAWYQQKPGKAPKLLIYKASSLASGVPSRFSGSGSGTEFTLTISSLQPDDFATYYCQQYSNYPPTFGGGTKLEIK
notes: RAA22 VH on Hole heavy chain (T366S, L368A, Y407V, Y349C) with lambda CL; cysteine insertion after S239; also called RAA22/B09 DuetMab; RAA22/B09 bispecific mAb
Kd [1]: 2.2 nM | koff [1]: 0.000986 s⁻¹ | kon [1]: 443000 M⁻¹ s⁻¹ | Kd [2]: 197 nM | koff [2]: 0.00548 s⁻¹ | kon [2]: 27800 M⁻¹ s⁻¹ | Kd (mouse EGFR (recombinant)): 575 nM | koff (mouse EGFR (recombinant)): 0.0206 s⁻¹ | kon (mouse EGFR (recombinant)): 35400 M⁻¹ s⁻¹ | Kd [3]: 45 nM | koff [3]: 0.00201 s⁻¹ | kon [3]: 44700 M⁻¹ s⁻¹ | Kd [4]: 2.2 nM | koff [4]: 0.00212 s⁻¹ | kon [4]: 974000 M⁻¹ s⁻¹ | binding result (mouse cMET (recombinant)): no binding (tested: 10 µg/mL) | binding result (Ron (CD136)): no binding (tested: 10 µg/mL)

Reference: patent US20250121104A1 (FUSION PHARMACEUTICALS, published 2025)
